From article doi:10.1101/2025.10.06.680677, “Mechanistic insight into the oligomerisation of Arabidopsis CRY1 and its inhibition by BIC1” (bioRxiv, 2025)
Residue numbers refer to the chain shown, from its start. Names may count otherwise.

B1: Arabidopsis thaliana CRY1 PHR domain (residues 1-509) (domain or fragment, UniProt Q43125 1-509, looked up)
chain: MSGSVSGCGSGGCSIVWFRRDLRVEDNPALAAAVRAGPVIALFVWAPEEEGHYHPGRVSRWWLKNSLAQLDSSLRSLGTCLITKRSTDSVASLLDVVKSTGASQIFFNHLYDPLSLVRDHRAKDVLTAQGIAVRSFNADLLYEPWEVTDELGRPFSMFAAFWERCLSMPYDPESPLLPPKKIISGDVSKCVADPLVFEDDSEKGSNALLARAWSPGWSNGDKALTTFINGPLLEYSKNRRKADSATTSFLSPHLHFGEVSVRKVFHLVRIKQVAWANEGNEAGEESVNLFLKSIGLREYSRYISFNHPYSHERPLLGHLKFFPWAVDENYFKAWRQGRTGYPLVDAGMRELWATGWLHDRIRVVVSSFFVKVLQLPWRWGMKYFWDTLLDADLESDALGWQYITGTLPDSREFDRIDNPQFEGYKFDPNGEYVRRWLPELSRLPTDWIHHPWNAPESVLQAAGIELGSNYPLPIVGLDEAKARLHEALSQMWQLEAASRAAIENGSEEG
notes: Cryptochrome 1 (CRY1), Arabidopsis thaliana, photolyase homology region (PHR) domain, residues 1-509; Cloned in pACYCDuet-1; Monomer about 59 kDa by LILBID-MS; also called wild-type CRY1; source: E. coli BL21 Star (DE3), purified (Ni-NTA, SEC on Superdex 200)
B2: Arabidopsis thaliana CRY1 PHR domain (residues 1-509) L407F mutant (domain or fragment, UniProt Q43125 1-509, looked up)
chain: B1 chain with L407F
notes: Cryptochrome 1 (CRY1), Arabidopsis thaliana, PHR domain, residues 1-509, with L407F; Cloned in pACYCDuet-1; also called CRY1^L407F; constitutively active CRY1; source: E. coli BL21 Star (DE3), purified (Ni-NTA, SEC on Superdex 200)
B3: Blue-light Inhibitor of Cryptochromes 1 (BIC1) triple mutant C99A, C105A, C136A (natural protein, Arabidopsis thaliana, UniProt Q9LXJ1 1-140, looked up)
chain: MMNIDDTTSPMAHPIGPSQPPSDQTKQDPPSLPQEAASSVSADKKDLALLEEKPKQSQEEDRVDTGRERLKKHRREIAGRVWIPEIWGQEELLKDWIDASTFDTALVPAGISSARTALVEEARRAASASGGLHNRALILR
notes: BIC1, Arabidopsis thaliana, synthetic gene with three cysteine-to-alanine substitutions; Cloned in pET28a(+) (BioCat GmbH); About 20 kDa by LILBID-MS; also called BIC1^3CA; source: E. coli BL21 Star (DE3), purified (Ni-NTA, SEC on Superdex 75)
B4: Arabidopsis thaliana wild-type BIC1 protein (natural protein, UniProt Q9LXJ1 1-140, looked up)
chain: B3 chain with A99C, A105C, A136C
notes: BIC1, Arabidopsis thaliana, wild type with its cysteines; The construct and its host are not described; the methods say in general that recombinant proteins carried an N-terminal His6-tag; The dimer is held by disulfide bonds

Experiments:
[1] = target: the molecule itself; test: native MS; time-resolved nESI-MS, 10 scans per second, CRY1 15 µM, blue light, room temperature, no ATP; reversible two-step model (monomer to dimer, dimer to tetramer) fitted with DynaFit
[2] = target: the molecule itself; test: native MS; LILBID-MS, under blue light (455 nm LED, 100 µmol m-2 s-1), 20 °C, 200 mM ammonium acetate, 10 mM DTT, pH 7.4; BIC1 equimolar, added before illumination or to pre-illuminated tetrameric CRY1
[3] = target: the molecule itself; test: native MS; time-resolved nESI-MS, CRY1 15 µM, blue light, room temperature, with 100 µM ATP; reversible two-step model (monomer to dimer, dimer to tetramer)
[4] = target: the molecule itself; test: SEC; analytical SEC, Superdex 200 10/300 GL, 10 °C, 30 µM protein, ß-mercaptoethanol, kept in darkness (red safe light)
[5] = target: B1; test: native MS; quantitative LILBID-MS (qLILBID-MS), label-free, under blue light; KD from dissociation plots; conditions: both partners purified
[6] = target: B1; test: native MS; quantitative LILBID-MS (qLILBID-MS), label-free, in the dark; KD from dissociation plots; conditions: both partners purified
[7] = target: B2; test: as above; conditions: both partners purified
[8] = target: the molecule itself; test: not stated; wild-type BIC1, disulfide bond-mediated dimerization (Extended Data Fig. 5a, b); method not given

B1 was tested, and the “half-life of tetramer formation (single-exponential fit)” value [1] was about 18 s, the “stoichiometry N” value [2] was 4 and the “fold change of the rate of tetramer formation with 100 µM ATP against no ATP” value [3] was about 4 fold. For the same binder, the “fold slowing of dimer dissociation with 100 µM ATP against no ATP” value [3] was over 10 fold and the “fold slowing of tetramer dissociation with 100 µM ATP against no ATP” value [3] was about 2 fold.

In the case of B2, the “stoichiometry N” value [4] is reported as 4.

For B3, the Kd [5] was 130 ± 90 nM, the Kd [6] was about 1200 nM and the Kd [7] was 100 ± 30 nM.

In the case of B4, the “stoichiometry N” value [8] is reported as 2.
